# Results taken from US20180364250A1 (published 2018).
# Where two headings read alike, the source gives them in different places.
# B1: tSR (designed binder)
# chain: MPSSHHHHHHSSGLVPRGSHMTEEEQIAYAMQMSLREAGGGSDLLCKKGCGYYGNPAWQGFCSKCWREEAHKCAAERAAAE
# B2: tSR chimeric polypeptide sensor (designed binder)
# chain: B1 chain
# B3: Atto532-tagged IsoT^ZnF (S227C) (designed binder)
# chain: MPSSHHHHHHSSGLVPRGSHMKQEVQAWDGEVRQVSKHAFSLKQLDNPARIPPSGWKCSKCDMRENLWLNLTDGSILCGRRYFDGCGGNNHAVEHYRETGYPLAVKLGTITPDGADVYSYDEDDMVLDPSLAEHLSHFGIDMLKMQK
# modifications: Atto532 fluorophore on the Cys of S227C (the bold C of the 2nd table)
# B4: Atto532-tagged tIV L1 Cys (designed binder)
# chain: MGSSHHHHHHSSGLVPRGSHMKQEVQAWDGEVRQVSKHAFSLKQLDNPARIPPSGWKCSKCDMRENLWLNLTDGSILCGRRYFDGSGGNNHAVEHYRETGYPLAVKLGTITPDGADVWSYDEDDMVLDPSLAEHLSHFGIDMLKMQKGSCAAAEEAELDLKAAIQESLREA
# modifications: Atto532 fluorophore on the Cys of linker 1 (the bold C of the 2nd table)
# Experiments:
# K63 Ub2 = experiment: fluorescence competition with 5 nM Atto532-Ub(S20C) and 600 nM tSR
# K48 Ub4 = experiment: as above
# K11 Ub2 = experiment: as above
# [1] = biological target: T1, Ubiquitin (free, untagged) (UniProt P0CG48 1-76); experiment: competition
# [2] = biological target: T1, Ubiquitin (free, untagged)
# [3] = biological target: T1, Ubiquitin (free, untagged); experiment: fluorescence intensity
binder,measurement,setting,value
B1,Ki,K63 Ub2,4.3 µM
same,Ki,K48 Ub4,4 µM
same,Ki,K11 Ub2,4.2 µM
B2,Ki,[1],4.3 µM
B3,Kd,[2],8.4 µM
B4,Kd,[3],587 nM
